B1: PRT-71 (protein)
chain: MANQEIRYSEVTPYHVTSVWTKGVTPPANFTQGEDVFHAPYVANQGWYDITKTFNGKDDLLCGAATAGNMLHWWFDQNKEEIEAYLKKHPEKQKIMFGDQELLDVRKVINTKGSQTNSELFNYFRDKAFPGLSARRLGVMPDLVLDMFINGYYLNVYKTQTTDVNRTYQEKDKRGGIFDAVFTRGDQSKLLTSRHDFKEKNLKEISDLIKKELTEGKALGLSHTYANVRINHVINLWGADFDSNGNLKAIYVTDSDSNASIGMKKYFVGVNSAGKVAISAKEIKEDNIGAQVLGLFTLSTGQDIWNQTN
B2: PRT-72 (protein)
chain: MANQEIRYSEVTPYHVTSVWTKGVTPPAKFTQGEDVFHAPYVANQGWYDITKTFNGKDDLLCGAATAGNMLHWWFDQNKEYIEAYLKKHPEKQKIMFGDQELLDVRKVINTKGDQTNSELFNYFRDKAFPYLSARRLGVMPDLVLDMFINGYYLNVTKTQTTDVNRTYQEKDRRGGIFDAVFTRGDQSKLLTSRHDFKEKNLKEISDLIKKELTEGKALGLSHTYANVRINHVINLWGADFDSNGNLKAIYVTDSDSNASIGMKKYFVGVNSAGKVAISAKEIKEDNIGAQVLGLFTLSTGQDIWNQTN
B3: PRT-75 (protein)
chain: MANQEIRYSEVTPYHVTSVWTKGVTPPAKFTQGEDVFHAPYVANQGWYDITKTFNGKDDLLCGAATAGNMLHWWFDQNKEKIEAYLKKHPEKQKIMFGDQELLDVRKVINTKDDQTNSELFNYFRDKAFPGLSARRLGVMPDLVLDMFINGYRLNVTKTQTTDVNETYQTKDKRGGIFDAVFTRGDQSKLLTSRHDFKEKNLKEISDLIKKELTEGKALGLSHTYANVRINHVINLWGADFDSNGNLKAIYVTDSDSNASIGMKKYFVGVNSAGKVAISAKEIKDDNIGAQVLGLFTLSTGQDIWNQTN
B4: PRT-74 (protein)
chain: MANQEIRYSEVTPSHVTSVWTKGVTPPANFTQGEDVFHAPYVANQGWYDITKTFNGKDNLLCGAATAGNMLHWWFDQNKEEIEAYLKKHPEKQKIMFGDQELLDVRKVINTKDSQTNSELFNYFRDKAFPGLSARRLGVMPDLVLDMFINGYYLNVYKTQTTDVNRTYQEKDRRGGIFDAVFTRGDQSKLLTSRHDFKEKTLKEISDLIKKELTEGKALGLSHTYANVRINHVINLWGADFDSNGNLKAIYVTDSDSNASIGMKKYFVGVNSAGKVAISAKEIKEDNIGAQVLGLFTLSTGQDIWNQTN
B5: PRT-73 (protein)
chain: MANQEIRYSEVTPYHVTSVWTKGVTPPANFTQGEDVFHAPYVANQGWYDITKTFNGKDDLLCGAATAGNMLHWWFDQNKEKIEAYLKKHPEKQKIMFGDQELLDVRKVINTKDDQTNSELFNYFRDKAFPGLSARRLGVMPDLVLDMFINGYYLNVTKTQTTDVNRTYQEKDRRGGIFDAVFTRGDQSKLLTSRHDFKEKNLKEISDLIKKELTEGKALGLSHTYANVRINHVINLWGADFDSNGNLKAIYVTDSDSNASIGMKKYFVGVNSAGKVAISAKEIKEDNIGAQVLGLFTLSTGQDSWNQTN
B6: PRT-68 (protein)
chain: MANQEIRYSEVTPYHVTSVWTKGVTPPANFTQGEDVFHAPYVANQGWYDITKTFNGKDDLLCGAATAGNMLHWWFDQNKDQIKRYLEEHPEKQKINFNGEQMFDVKEAIDTKNHQLDSKLFEYFKEKAFPYLSTKHLGVFPDHVIDMFINGYRLSLTNHGPTPVKEGSKDPRGGIFDDVFTRGDQSKLLTSRHDFKEKNLKEISDLIKKELTEGKALGLSHTYANVRINHVINLWGADFDSNGNLKAIYVTDSDSNASIGMKKYFVGVNSAGKVAISAKEIKEDNIGAQVLGLFTLSTGQDSWNQTN
B7: PRT-69 (protein)
chain: MANQEIRYSEVTPYHVTSVWTKGVTPPANFTQGEDVFHAPYVANQGWYDITKTFNGKDDLLCGAATAGNMLHWWFDQNKDQIKRYLEEHPEKQKINFNGEQMFDVKEAIDTKNDQLDSKLFEYFKEKAFPYLSTKHLGVFPDHVIDMFINGYRLSLTNHGPTPVKEGSKDPRGGIFDAVFTRGDQSKLLTSRHDFKEKNLKEISDLIKKELTEGKALGLSHTYANVRINHVINLWGADFDSNGNLKAIYVTDSDSNASIGMKKYFVGVNSAGKVAISAKEIKEDNIGAQVLGLFTLSTGQDSWNQTN
B8: PRT-70 (protein)
chain: MANQEIRYSEVTPYHVTSVWTKGVTPPANFTQGEDVFHAPYVANQGWYDITKTFNGKDDLLCGAATAGNMLHWWFDQNKEQIKRYLEEHPEKQKINFNGEQMFDVKEAIDTKNHQLDSKLFEYFKEKAFPYLSTKHLGVFPDHVIDMFINGYRLSLTNHGPTPVKEGSKDPRGGIFDAVFTRGDQSKLLTSRHDFKEKNLKEISDLIKKELTEGKALGLSHTYANVRINHVINLWGADFDSNGNLKAIYVTDSDSNASIGMKKYFVGVNSAGKVAISAKEIKEDNIGAQVLGLFTLSTGQDSWNQTN
B9: PRT-5 (protein)
chain: MANQEIRYSEVTPYHVTSVWTKGVTPPANFTQGEDVFHAPYVANQGWYDITKTFNGKDDLLCGAATAGNMLHWWFDQNKDQIERYLKKHPEKQKINFNGEQMFDVKEAIDTKNSQLDSKLFEYFKEKAFPYLSTKHLGVFPDHVIDMFINGYRLSLTNHGPTPVKEGSKDPRGGIFDAVFTRGDQSKLLTSRHDFKEKNLKEISDLIKKELTEGKALGLSHTYANVRINHVINLWGADFDSNGNLEAIYVTDSDSNASIGMKKYFVGVNSAGKVAISAKEIKEDNIGAQVLGLFTLSTGQDIWNQTN

The data set deals with pooled human IgG.
For B1, the Enzyme Activity Endpoint Assay (purified): Fab′2 worked out at 53 ng/µL, the Enzyme Activity Endpoint Assay (purified): Fc worked out at 126 ng/µL, the Enzyme Activity Endpoint Assay (purified): IgG turned out to be 25 ng/µL and the Enzyme Activity Endpoint Assay (purified): scIgG amounted to 0 ng/µL.

B2: the Enzyme Activity Endpoint Assay (purified): Fab′2 was 41 ng/µL, the Enzyme Activity Endpoint Assay (purified): Fc was determined as 100 ng/µL, the Enzyme Activity Endpoint Assay (purified): IgG came to 14 ng/µL and the Enzyme Activity Endpoint Assay (purified): scIgG was 8 ng/µL.

Take B3: the Enzyme Activity Endpoint Assay (purified): Fab′2 came out at 12 ng/µL, the Enzyme Activity Endpoint Assay (purified): Fc was found to be 76 ng/µL, the Enzyme Activity Endpoint Assay (purified): IgG came out at 8 ng/µL and the Enzyme Activity Endpoint Assay (purified): scIgG came out at 54 ng/µL.

Regarding B4, the Enzyme Activity Endpoint Assay (purified): Fab′2 was 26 ng/µL, the Enzyme Activity Endpoint Assay (purified): Fc was determined as 73 ng/µL, the Enzyme Activity Endpoint Assay (purified): IgG was determined as 23 ng/µL and the Enzyme Activity Endpoint Assay (purified): scIgG stood at 27 ng/µL.

In turn, B5 had an Enzyme Activity Endpoint Assay (purified): Fab′2 of 52 ng/µL, an Enzyme Activity Endpoint Assay (purified): Fc of 105 ng/µL, an Enzyme Activity Endpoint Assay (purified): IgG of 28 ng/µL and an Enzyme Activity Endpoint Assay (purified): scIgG of 5 ng/µL.

B6 had an Enzyme Activity Endpoint Assay (purified): Fab′2 of 51 ng/µL, an Enzyme Activity Endpoint Assay (purified): Fc of 133 ng/µL, an Enzyme Activity Endpoint Assay (purified): IgG of 16 ng/µL and an Enzyme Activity Endpoint Assay (purified): scIgG of 16 ng/µL.

In turn, B7 displayed an Enzyme Activity Endpoint Assay (purified): Fab′2 of 45 ng/µL, an Enzyme Activity Endpoint Assay (purified): Fc of 121 ng/µL, an Enzyme Activity Endpoint Assay (purified): IgG of 14 ng/µL and an Enzyme Activity Endpoint Assay (purified): scIgG of 14 ng/µL.

With B8, the Enzyme Activity Endpoint Assay (purified): Fab′2 turned out to be 47 ng/µL, the Enzyme Activity Endpoint Assay (purified): Fc was found to be 124 ng/µL, the Enzyme Activity Endpoint Assay (purified): IgG is 14 ng/µL and the Enzyme Activity Endpoint Assay (purified): scIgG was determined as 14 ng/µL.

B9: the Enzyme Activity Endpoint Assay: Fab′2 was 34 ng/µL, the Enzyme Activity Endpoint Assay: Fc stood at 117 ng/µL, the Enzyme Activity Endpoint Assay: IgG is 18 ng/µL and the Enzyme Activity Endpoint Assay: scIgG is 34 ng/µL.

The record behind these values is patent US20250027068.
